# Measurements published in patent US20250084163A1 (published 2025).
# Where two headings read alike, the source gives them in different places.
# How the values were obtained:
# Test in all cases: SPR
# [1] = biological target: T1, Recombinant truncated human his-tag ROR1 extracellular domain protein (UniProt Q01973 30-403)
# [2] = biological target: T1, Recombinant truncated human his-tag …; remark: listed apart in the source
# [3] = biological target: T1, Recombinant truncated human his-tag …; remark: listed apart in the source
# T1 sequence (Q01973 other isoform, or with tags, fused parts or gaps): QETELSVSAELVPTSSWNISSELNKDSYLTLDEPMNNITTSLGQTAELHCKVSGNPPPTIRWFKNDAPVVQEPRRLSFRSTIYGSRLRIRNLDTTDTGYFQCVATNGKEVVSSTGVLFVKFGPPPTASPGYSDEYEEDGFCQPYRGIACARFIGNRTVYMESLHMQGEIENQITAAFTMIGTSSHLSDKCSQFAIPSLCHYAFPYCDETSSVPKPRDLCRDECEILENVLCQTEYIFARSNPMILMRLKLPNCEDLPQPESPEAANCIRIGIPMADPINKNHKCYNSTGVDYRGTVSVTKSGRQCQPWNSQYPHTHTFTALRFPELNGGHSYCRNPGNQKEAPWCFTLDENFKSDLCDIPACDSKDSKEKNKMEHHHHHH
binder,measurement,setting,value
"RO6D8-jlv1011 (antibody, V domains shown) VH: QVQLVQSGAEVKKPGASVKVSCKASGYTFTSKYYHWVRQAPGQGLEWMGIINPTSGSTSYAQKFQGRVTMTRDTSTSTVYMELSSLRSEDTAVYYCARDSSRYSGWYFDLWGQGTTVTVSS VL: AIQLTQSPSSLSASVGDRVTITCRASQGVSTEIAWYQQKPGKAPKLLIYAASSLQSGVPSRFSGSGSGTDFTLTISSLQPEDFATYYCQQYYGYPIAFGQGTRLEIK",Kd,[1],0.796 nM
same,Kd,[2],0.796 nM
"RO6D8-s10 (antibody, V domains shown) VH: QVQLVQSGAEVKKPGASVKVSCKASGYTFTNYYMHWVRQAPGQGLEWMGIINPSGGSTSYAQKFQGRVTMTRDTSTSTVYMELSSLRSEDTAVYYCARSSRSSYYLWVLDLWGQGTTVTVSS VL: AIQMTQSPSSLSASVGDRVTITCRASQGVSTEIAWYQQKPGKAPKLLIYAASSLQSGVPSRFSGSGSGTDFTLTISSLQPEDFATYYCQQFNSYPITFGQGTRLEIK",Kd,[1],2.46 nM
same,Kd,[3],2.46 nM
"RO6D8wt (antibody, V domains shown) VH: QVQLVQSGAEVKKPGASVKVSCKASGYTFTNYYMHWVRQAPGQGLEWMGIINPSGGSTSYAQKFQGRVTMTRDTSTSTVYMELSSLRSEDTAVYYCARDSSSWYSGWYFDLWGQGTTVTVSS VL: AIQMTQSPSSLSASVGDRVTITCRASQDVRAHLAWYQQKPGKAPKLLIYAASSLQSGVPSRFSGSGSGTDFTLTISSLQPEDFATYYCQQFNSYPITFGQGTRLEIK",Kd,[1],118 nM
same,Kd,[3],118 nM
"RO6D8-011 (antibody, V domains shown) VH: QVQLVQSGAEVKKPGASVKVSCKASGYTFTNYYMHWVRQAPGQGLEWMGIINPTSGRTSYAQKFQGRVTMTRDTSTSTVYMELSSLRSEDTAVYYCARDSSSWYSGWYFDLWGQGTTVTVSS VL: AIQMTQSPSSLSASVGDRVTITCRASQGIRTDLAWYQQKPGKAPKLLIYAASSLQSGVPSRFSGSGSGTDFTLTISSLQPEDFATYYCQQYYGYPIAFGQGTRLEIK",Kd,[1],2.48 nM
same,Kd,[2],2.48 nM
